Measurements taken from the supplement of paper PMC12764529.
± gives the half width of the 95% confidence interval.

Experiments:
[1] = folding stability dG unfold (combined trypsin and chymotrypsin); higher = more stable
Procedure, shortened: (§1)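 K50 was inferred by Bayesian fitting of sequencing counts obtained after protease digestion of designed mini-proteins. Unfolding free energy was derived by comparison with a sequence-predicted unfolded-state K50 and a shared folded-state K50, for each protease or both combined. The mini-proteins were under 80 residues, had no cysteine, were carried in a PA-tagged cDNA display construct, and were kept only if AlphaFold2 dimer inter-PAE exceeded 15.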

[2] = folding stability dG unfold from chymotrypsin proteolysis; higher = more stable
Procedure, shortened: as §1

[3] = folding stability dG unfold from trypsin proteolysis; higher = more stable
Procedure, shortened: as §1

Sequence	folding stability dG unfold [1] [kcal/mol]	folding stability dG unfold [2] [kcal/mol]	folding stability dG unfold [3] [kcal/mol]
SAGGSAGGSMTVETTPLATSRDPESDNTVTLTRTTVTFPDGTVRTETWTVTTAPDGTTTTTVSSAGGSAGGS [r12_250_JUSTAS]	0.999 ± 0.049	1.35 ± 0.033	0.00376 ± 0.037
SAGGSFVKIKVKFDNKPIEIPIPDFVQKVEGDYQTIVFPEGDADSVLKKLKEASKKIEIVKVEVVKPSAGGS [r8_490_TrMRF]	0.354 ± 0.12	0.618 ± 0.13	-0.735 ± 0.24
SAGGSAKVIMFPSLEEALDLAKEAMGHGKPIQIFLPDGYMIEIEVKPDPDGKPKIDIKWRKLPPDDSAGGSA [r15_761_TrROS]	2.55 ± 0.21	2.8 ± 0.074	2.02 ± 0.13
SSAEELARRLAAELAERLPPGARITDVRIERRADGTVTITVTVELPDGRTLTVTITLDLATGEITIEIHPSA [r9_219_TrROS_Hall]	4.89 ± 0.19	4.35 ± 0.26	4.95 ± 0.16
SAGGMKVRIRIEVDGKTLELELEVEPGETVKITLEVNGEEVTITFDAATGEITIELPPGAKIVEIEPSAGGS [r16_761_TrROS_Hall]	4.01 ± 0.39	4.52 ± 0.46	3.56 ± 0.23
SAGGSAGGSAGLTFTLPDGTKITIETLEDGSVKIKIETLTPDGKPLEAEFVIPGSHPDEDSAGGSAGGSAGG [r17_471_TrMRF]	3.58 ± 0.13	3.76 ± 0.14	3.2 ± 0.15
SAGGSAGGSAGGMTLEELKNLKPGEEVEIEIEVYDKNGKKVSKYRIRIYNDKIEIEKLPSAGGSAGGSAGGS [r10_394_TrROS_Hall]	2.71 ± 0.092	2.991 ± 0.026	2.4 ± 0.057
GPSPVSVSTSTSTSLSTVGNTPVLVTTTTTTTTTLSPDPTDPSVTTTTTTTTTTTTVYDPANGKPLSTTTSS [r1_406_JUSTAS]	1.83 ± 0.14	1.86 ± 0.059	1.83 ± 0.079
SAGGSAGGMKVLATTEDGEVYLFDLSEFDLSFEEWLNLGEEELAELLRKAFPEKEITLELVEEPSAGGSAGG [r6_164_TrMRF]	3.02 ± 0.077	3.3 ± 0.047	2.5 ± 0.076
SVYNPNNPNIPTKLTVTIPVPEEVVAAGDTAAAEAAAEATAAALAPEGWRVTSVSFPRETGTMTVTLTRPSA [r9_75_JUSTAS]	1.33 ± 0.063	1.16 ± 0.11	1.32 ± 0.022
SMDIKVTKLPDGSYRITASVPPDTKPITIPVPKTGKPVVITTEPGKLTVTTDDEEVVKEVAEAIKKGELLSA [r9_515_JUSTAS]	1.02 ± 0.15	0.929 ± 0.087	0.951 ± 0.066
SAGGSAGGSAGGSKDERTLTLRLRVTTPIYGTDADGNPLEPIEVTKEYELTVTVPADLLSAGGSAGGSAGGS [r4_425_TrMRF]	2.1 ± 0.16	2.69 ± 0.099	1.18 ± 0.082
SAGGGREIKVEFEIPHPNGNQMRITVTIYRSPGGIRIKIPVSYTDPEYRDYMREWAEYLARRIAKELSAGGS [r8_416_TrROS]	3.46 ± 0.047	3.571 ± 0.022	3.05 ± 0.089
SAGGSAMKVIRIRPDDPRVKELLKKLEDAGYEVRYDEETGELYVTLPDGKVLKFKSLEELKKAGFESAGGSA [r15_94_TrROS_Hall]	1.93 ± 0.088	2.19 ± 0.1	1.63 ± 0.029
SAMSVKTYSSTSVDPKTGKTYTTTTTVTPKPEPPWLVTTTTYLVDPATGTTTLLSTTTTTLDPNDPTLLSAG [r14_939_JUSTAS]	2.45 ± 0.084	2.67 ± 0.11	2.11 ± 0.071
SAGGSAGGSAGGMTPEEKIEALIKATPPLTVKTSGPGVSYEVEDLEKLKKLNVTISSVLGSAGGSAGGSAGG [r7_504_JUSTAS]	-0.637 ± 0.22	-0.683 ± 0.24	-1.3 ± 0.67

Sequence	folding stability dG unfold [1] [kcal/mol]	folding stability dG unfold [2] [kcal/mol]	folding stability dG unfold [3] [kcal/mol]
SAGGSAGGSAGGKSYTDPNSNTVTTLDEGPGFGKVTTTTYKPEEPVPLETTESIIGPVLSSAGGSAGGSAGG [r7_343_JUSTAS]	0.273 ± 0.24	-0.026 ± 0.11	0.367 ± 0.04
SMNITVTYDPETDTVTIEIDDEEIDPETLRELLDAIPPNVKRVIIHVDHPETARTVEELAKETGLPVEIASA [r9_919_TrMRF]	3.97 ± 0.12	3.2 ± 0.13	3.96 ± 0.077
SAGGSAGGMVTIASITFEEDPEGGITVTVYLPSNGKTITVPVPADTPEAEARARAEAAARAYAASAGGSAGG [r6_628_JUSTAS]	1.28 ± 0.15	1.49 ± 0.098	0.894 ± 0.028
SAGGSAGGSAKPKLHIHILTAGPFEELAELLEELAKRIFPPELEIDIHIHYIPKELLHPELGSAGGSAGGSA [r18_498_TrMRF]	2.59 ± 0.077	2.51 ± 0.041	2.74 ± 0.15
SAMRIVVPYRETLRLTGLPEDTPLEEFRERFERIFRRLMERGVRPVRIEIYEIGDERYIVVEIETPGGASAG [r14_158_TrMRF]	3.62 ± 0.041	4.042 ± 0.017	2.907 ± 0.019
SAGGSAGGMVKVSSDPATGKVYVTYPGADPEAVAEKVKKEYGAKKIKVEKDPNKDVTTITITVESAGGSAGG [r6_662_JUSTAS]	-0.0511 ± 0.19	0.271 ± 0.14	-1.01 ± 0.45
SAGGSAMKGLSVERVELDGEEVVRIEIETPAGGSETLELSLRDPEAVEAYLAALKAAGVIAEILPESAGGSA [r15_575_JUSTAS]	1.11 ± 0.14	0.713 ± 0.11	1.24 ± 0.027
SAGGMKKITITIPLEELKNLTPEERKEKLKELAEEIAKKLGLPPGAKIKKIEVEEVDGKLYVKIEIESAGGS [r16_368_TrROS_Hall]	3.92 ± 0.1	3.93 ± 0.066	3.82 ± 0.18
SAGGSAGGMTFTIPPGKPVTIRVYNRNGELIEEVTVTGAGARIHVSEIPGTGELKITRIDEIPPSAGGSAGG [r6_523_TrMRF]	2.72 ± 0.087	2.91 ± 0.071	2.33 ± 0.049
SAGGSAGGSAGGGISEAAASGTPLLVTYTDESGNVTEVVVRPDSPVPLPGVVSAEVRLESAGGSAGGSAGGS [r10_700_JUSTAS]	0.666 ± 0.037	0.167 ± 0.023	1.05 ± 0.03
SAGGSAGGMVRFDPAGGRLFLDGVPVELSEVLSVESLEEEGRVRVEALLVDGSRLEFEIPKEALSAGGSAGG [r6_682_JUSTAS]	2.13 ± 0.029	2.323 ± 0.021	1.73 ± 0.036
KTIEIWIPMPMGQAETFVKSLARKLGLPPDDYKVDNVEMQPNKDGWPYVKMEIKLPNNGKEIEIIMPPGWFS [r1_21_TrROS]	2.38 ± 0.23	2.6 ± 0.059	1.67 ± 0.061
SAVPLSEEELEALLEEKAKEKAEEILKENPELPPGAVIKIKVEYEQEVVLEDKVEPVKYEREVEYKVPLSAG [r14_486_JUSTAS]	-0.0614 ± 0.44	-0.503 ± 0.76	0.00158 ± 0.12
SAGGSAGGSAGGKIKILKKNKTKEEIKKELAEKYNVKKIEIKPIKGNTYLVEIEVEPEESAGGSAGGSAGGS [r10_1219_TrMRF]	0.292 ± 0.25	0.634 ± 0.22	-0.364 ± 0.24
SAKKKKVKKKEIKVTLKLKLPGAKIKSVKVEKKGDKLVITVEIELENGEKLKLTAVFDKDGKIVKIELESAG [r14_719_TrROS_Hall]	1.74 ± 0.38	1.96 ± 0.061	1.11 ± 0.11
